The experiment has as its target complex III dimer (CIII2, cytochrome bc1 complex) of Tetrahymena thermophila (Tetrahymena thermophila (endogenous)). Description: cryo-EM structure.

Consider one substance from article doi:10.1101/2022.06.26.497646.

Take “complex III dimer (CIII2, cytochrome bc1 complex) of Tetrahymena thermophila”: the stoichiometry N (usually a count of units in the complex or per binding partner) came out at 2.
